Results reported in patent US11448657B2, “Methods and kits for assessing Heparanase procoagulant activity, compositions comprising Heparanase, and methods for the treatment of coagulation-related disorders” (RAMBAM MED-TECH, priority 2011, dated 2022).
“Also recorded” adds a separate entry of the source.

How the values were obtained:
prothrombin = molecular target: T1, prothrombin (Homo sapiens, UniProt P00734); experiment: Direct activation of prothrombin by heparanase; type: biochemical; conditions: heparanase with prothrombin, 15 min 37° C.
T1 construct: plasma-derived human prothrombin; purchased American Diagnostica (Stanford, Conn., USA); host or cells: purified from human plasma

[1] = test system: TF-heparanase interaction; experiment: Co-immunoprecipitation of TF and heparanase; type: binding, human; conditions: purified TF and GS3 active heparanase 1 μg/mL each
Method: FIGS. 7A-7B: Direct interaction between heparanase and TF FIG. 7A. Co-immunoprecipitation. Purified TF (1 μg/mL) and GS3 active heparanase (1 μg/mL) proteins were incubated with beads coupled to polyclonal anti-TF (upper panel), or anti-heparanase (lower panel) antibodies. Bound proteins were analyzed by immunoblotting for the presence of heparanase (upper panel) or TF (lower panel), using the respective monoclonal antibody.
The interaction between TF and heparanase was analyzed by co-immunoprecipitation (Co-IP). The ProFound™ Co-Immunoprecipitation Kit in which the antibody is coupled to gel support, was employed according to the manufacturer's instruction (Pierce, Rockford, Ill., USA). Briefly, coupling gel was washed with coupling buffer. Polyclonal anti-TF or polyclonal anti-heparanase (1453) antibodies (100 μg) and 5 M sodium cyanoborohydride, were added to the gel support and incubated at 4° C. for 4 hours. The gel was then washed with quenching buffer and incubated with the quenching buffer and sodium cyanoborohydride at 20° C. for 30 minutes. Next, the gel was washed 4 times with wash solution, once with elution buffer, and twice with coupling buffer. Purified proteins (0.5 μg) were added to the gel and incubated for 2 hours at 4° C. […]

ICR mice = experiment: Intra-peritoneal injection of heparanase to ICR mice, blood drawn after 4 hours (ELISA); type: in vivo; conditions: for IL-6 level: heparanase intra-peritoneal
Method: Heparanase or LPS were injected to ICR mice and blood was drawn after 4 hours. Intra-peritoneal injection of heparanase (0.5 μg/mg) compared to PBS injection increased TAT (p<0.05) (18A) and D-Dimer (p<0.05) (18B) levels to similar levels induced by LPS (5 μg/mg).
FIG. 19: IL-6 as a marker of sepsis severity Heparanase, LPS and LPS+heparanase were injected intra-peritoneal to ICR mice. Four hours later the blood was drawn and IL-6 level was measured by ELISA.
Methods: ICR mice, heparanase knock-out mice and heparanase over-expression mice were studied. Sepsis was induced by intra-peritoneal injection of lipopolysaccharides (LPS). Inhibitory peptides to TF/heparanase complex (number 11, 22, 5, 6, 7, 12, and 21 [SEQ IDs: 1-7]) were injected intra-peritoneal half an hour after heparanase or LPS. After 4 hours blood was obtained via sub-mandibular plexus puncture followed by mice sacrificing. Levels of thrombin-antithrombin (TAT), D-Dimer and IL-6 were tested using ELISA. Western blot to plasma factor VII and immunostaining of fibrinogen in lung, kidney and spleen were performed.

whole blood = experiment: Thromboelastography in citrated whole blood; parameters: species or system human
Method: Thromboelastogram studies. The assay includes addition of factor VIIa, X and calcium to blood drawn into citrate in the presence or absence of heparanase. Each time, a sample with addition of heparanase (Hepa) and a sample without (Con)—were analyzed in parallel. R—The period of latency from the time that the blood was placed in the analyzer until the initial fibrin formation: this represents the coagulation factor activation.
Angle—measures the rapidity of fibrin build-up and cross-linking: this represents the coagulation factor amplification. MA—A direct function of the maximum dynamic properties of fibrin and platelet bonding: signifies the ultimate strength of the clot. […] Representative results are shown.
The assay was performed according to the manufacturer's recommendations. Briefly, 3 mL of healthy donor's whole blood were collected in a bottle containing 3.2% (0.12M) sodium citrate and stored at room temperature. Recalcification and TEG® measurements at 37° C. were performed in disposable cups of the Thrombelastograph® coagulation analyzer (Haemoscope Corporation, Skokie, Ill., USA).
Next, the procoagulant effect of heparanase in human plasma was tested. Using an ELISA method [Shafat I. et al., Biochem Biophys Res. Commun. […] When heparanase, factor VIIa and factor X were incubated (15 min, 37° C.) with pooled normal human plasma from five healthy donors, followed by the addition of a chromogenic substrate for factor Xa, a 7- to 8-fold increase in factor Xa levels was obtained com-pared to levels in plasma incubated in the absence of heparanase (FIG. 2). In this condition the coagulation was mainly dependent on the concentration of endogenous TF, as described previously [Suefuji H. et al., Am Heart J. 1997, 134(2 Pt. 1):253-259; Kim H K et al., Cardiology. 2000, 93(1-2):31-36]. The effect of heparanase was also tested in whole blood using thromboelastography. […]

factor X = molecular target: T2, factor X (Homo sapiens, UniProt P00742); experiment: Direct activation of factor X by heparanase; type: biochemical; conditions: heparanase with factor X, 15 min 37° C.
T2 construct: plasma-derived human factor X; purchased American Diagnostica (Stanford, Conn., USA); host or cells: purified from human plasma
T2 sequence (P00742 183-488 limits assumed): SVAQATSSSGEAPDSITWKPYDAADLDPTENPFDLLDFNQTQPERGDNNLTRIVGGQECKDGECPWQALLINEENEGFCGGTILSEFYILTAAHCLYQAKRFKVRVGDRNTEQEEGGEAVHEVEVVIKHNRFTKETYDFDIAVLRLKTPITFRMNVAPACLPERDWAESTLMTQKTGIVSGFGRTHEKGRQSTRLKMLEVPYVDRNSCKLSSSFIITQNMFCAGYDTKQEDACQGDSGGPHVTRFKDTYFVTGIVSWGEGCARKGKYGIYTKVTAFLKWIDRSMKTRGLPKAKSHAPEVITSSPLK
T2 sequence (P00742 41-179 limits assumed): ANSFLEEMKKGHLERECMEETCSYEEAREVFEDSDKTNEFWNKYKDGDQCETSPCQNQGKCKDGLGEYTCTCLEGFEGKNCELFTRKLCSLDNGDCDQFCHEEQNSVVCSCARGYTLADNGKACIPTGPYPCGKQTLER

[2] = heparanase 0.5 μg/mg intra-peritoneal, 4 hours, compared to PBS

B1: heparanase: single chain GS3 active heparanase, comprised of the 8 kDa and 50 kDa heparanase heterodimer (8+50), recombinant human (protein, listed as Homo sapiens)
chain 1: DPAQDVVDLDFFTQEPLHLVSPSFLSVTIDANLATDPRFLILLGSPKLRTLARGLSPAYLRFGGTKTDFLIFDPKKE
chain 2: DPGKKFKNSTYSRSSVDVLYTFANCSGLDLIFGLNALLRTADLQWNSSNAQLLLDYCSSKGYNISWELGNEPNSFLKKADIFINGSQLGEDFIQLHKLLRKSTFKNAKLYGPDVGQPRRKTAKMLKSFLKAGGEVIDSVTWHHYYLNGRTATREDFLNPDVLDIFISSVQKVFQVVESTRPGKKVWLGETSSAYGGGAPLLSDTFAAGFMWLDKLGLSARMGIEVVMRQVFFGAGNYHLVDENFDPLPDYWLSLLFKKLVGTKVLMASVQGSKRRKLRVYLHCTNTDNPRYKEGDLTLYAINLHNVTKYLRLPYPFSNKQVDKYLLRPLGPHGLLSKSVQLNGLTLKMVDDQTLPPLMEKPLRPGSSLGLPAFSYSFFVIRNAKVAACI
modifications: single-chain GS3 linker
For B1, the “thrombin generation from prothrombin alone” value (prothrombin) was “no thrombin was generated”, the “interaction with TF” value [1] was “interacts with TF” and the signs of illness (ICR mice; heparanase 0.5 μg/mg intra-peritoneal) was “mice did not show signs of illness”. The D-dimer level (ICR mice; [2]) was “increased”, the TAT level (ICR mice; [2]) was “increased” and the IL-6 level (ICR mice; 4 hours) was “levels of IL-6 did not rise”. For the same molecule, the IL-6 level (ICR mice; 4 hours, listed as Heparanase) was “did not increase IL-6 level”, the “time to clot formation (R) at the highest dose” value (whole blood; heparanase 4 μM) was “effect on time to clot formation was abolished; also recorded: no effect on R is detected” and the “thrombus strength (MA)” value (whole blood; increasing doses of heparanase) was “increase in thrombus strength; also recorded: stronger”. The “time to clot formation (R)” value (whole blood; increasing doses of heparanase, factor VIIa 0.04 μM, factor X 1.4 μM, recalcified blood) was “significant reduction in time to clot formation; also recorded: significantly faster” and the “factor Xa generation from factor X alone” value (factor X) was “no factor Xa was generated”.
